# Reference: PMC3466315, “Influence of PAS Domain Flanking Regions on Oligomerisation and Redox Signalling By NifL” (PLoS ONE, 2012)
# B1: NifL PAS1 domain construct, residues 21-140 (domain or fragment, Azotobacter vinelandii, UniProt P30663 21-140, looked up)
# chain: ELLPEIFRQTVEHAPIAISITDLKANILYANRAFRTITGYGSEEVLGKNESILSNGTTPRLVYQALWGRLAQKKPWSGVLVNRRKDKTLYLAELTVAPVLNEAGETIYYLGMHRDTSELH
# notes: NifL, Azotobacter vinelandii, residues 21-140; also called construct lacking the entire N-terminal extension; source: E. coli BL21(DE3)pLysS, purified; not shown: hexa-histidine-containing tag (26 additional residues, from the vector pETNdeM-11), N-terminal, kept
# B2: NifL(1-162) ΔL151 (domain or fragment, Azotobacter vinelandii, UniProt P30663 1-162, looked up)
# chain: MTPANPTLSNEPQAPHAESDELLPEIFRQTVEHAPIAISITDLKANILYANRAFRTITGYGSEEVLGKNESILSNGTTPRLVYQALWGRLAQKKPWSGVLVNRRKDKTLYLAELTVAPVLNEAGETIYYLGMHRDTSELHELEQRVNNQRMIEAVVNAAPA
# notes: NifL, Azotobacter vinelandii, residues 1-162 with L151 of the linker helix deleted; source: E. coli BL21(DE3)pLysS, purified
# B3: NifL 1-162 PAS1 construct after removal of the first 20 residues (domain or fragment, Azotobacter vinelandii, UniProt P30663 21-162, looked up)
# chain: ELLPEIFRQTVEHAPIAISITDLKANILYANRAFRTITGYGSEEVLGKNESILSNGTTPRLVYQALWGRLAQKKPWSGVLVNRRKDKTLYLAELTVAPVLNEAGETIYYLGMHRDTSELHELEQRVNNQRLMIEAVVNAAPA
# notes: NifL, Azotobacter vinelandii; the 1-162 construct without its first 20 residues; The limits are worked out from 'removal of the first 20 residues' of the 1-162 construct; source: E. coli BL21(DE3)pLysS, purified
# B4: NifL PAS1 domain construct, residues 1-140 (domain or fragment, Azotobacter vinelandii, UniProt P30663 1-140, looked up)
# chain: MTPANPTLSNEPQAPHAESDELLPEIFRQTVEHAPIAISITDLKANILYANRAFRTITGYGSEEVLGKNESILSNGTTPRLVYQALWGRLAQKKPWSGVLVNRRKDKTLYLAELTVAPVLNEAGETIYYLGMHRDTSELH
# notes: NifL, Azotobacter vinelandii, residues 1-140 (PAS1 domain with the N-terminal flanking region, without the C-terminal linker helix); PAS1 carries an FAD cofactor; also called NifL(1-140); 1-140 PAS1 domain construct; source: E. coli BL21(DE3)pLysS, purified; not shown: hexa-histidine-containing tag (26 additional residues, from the vector pETNdeM-11), N-terminal, kept
# B5: NifL(1-162) ΔN147-L151 (domain or fragment, Azotobacter vinelandii, UniProt P30663 1-162, looked up)
# chain: MTPANPTLSNEPQAPHAESDELLPEIFRQTVEHAPIAISITDLKANILYANRAFRTITGYGSEEVLGKNESILSNGTTPRLVYQALWGRLAQKKPWSGVLVNRRKDKTLYLAELTVAPVLNEAGETIYYLGMHRDTSELHELEQRVMIEAVVNAAPA
# notes: NifL, Azotobacter vinelandii, residues 1-162 with N147-L151 of the linker helix deleted; also called construct lacking residues N147-L151; source: E. coli BL21(DE3)pLysS, purified
# B6: NifL PAS1 construct with the N-terminal region and the C-terminal linker helix, residues 1-162 (domain or fragment, Azotobacter vinelandii, UniProt P30663 1-162, looked up)
# chain: MTPANPTLSNEPQAPHAESDELLPEIFRQTVEHAPIAISITDLKANILYANRAFRTITGYGSEEVLGKNESILSNGTTPRLVYQALWGRLAQKKPWSGVLVNRRKDKTLYLAELTVAPVLNEAGETIYYLGMHRDTSELHELEQRVNNQRLMIEAVVNAAPA
# notes: NifL, Azotobacter vinelandii, residues 1-162 (PAS1 with both flanking regions); PAS1 carries an FAD cofactor; also called NifL(1-162); 1-162 construct; source: E. coli BL21(DE3)pLysS, purified
# B7: NifL(1-162) ΔR150-L151 (domain or fragment, Azotobacter vinelandii, UniProt P30663 1-162, looked up)
# chain: MTPANPTLSNEPQAPHAESDELLPEIFRQTVEHAPIAISITDLKANILYANRAFRTITGYGSEEVLGKNESILSNGTTPRLVYQALWGRLAQKKPWSGVLVNRRKDKTLYLAELTVAPVLNEAGETIYYLGMHRDTSELHELEQRVNNQMIEAVVNAAPA
# notes: NifL, Azotobacter vinelandii, residues 1-162 with R150-L151 of the linker helix deleted; source: E. coli BL21(DE3)pLysS, purified
# Tests used:
# [1] = target: the molecule itself; assay: SEC; Superose 12 10/300 GL, 0.5 ml/min, 50 mM Tris-HCl, 10% v/v glycerol, 200 mM NaCl, pH 8.0; protein at 106 µM (in monomeric terms); 1-140 constructs; self-association
# [2] = target: the molecule itself; assay: SEC; Superose 12 10/300 GL, 0.5 ml/min, 50 mM Tris-HCl, 10% v/v glycerol, 200 mM NaCl, pH 8.0; 1-162 constructs at five different protein concentrations; self-association, dimer-tetramer equilibrium
# [3] = target: the molecule itself; assay: SEC; Superose 12 10/300 GL, 0.5 ml/min, 50 mM Tris-HCl, 10% v/v glycerol, 200 mM NaCl, pH 8.0; 1-162 constructs of Table S1, protein concentration not given; self-association
# [4] = target: the molecule itself; assay: SEC; Superose 12 10/300 GL, 0.5 ml/min, 50 mM Tris-HCl, 10% v/v glycerol, 200 mM NaCl, pH 8.0; 1-162 constructs at the highest injected concentration, 424 µM; self-association
protein,measurement,setting,value
B1,stoichiometry N,[1],2
B2,binding result,[2],binds
B3,stoichiometry N,[3],2
B4,stoichiometry N,[1],~4
B5,stoichiometry N,[4],3.6 monomers
B6,stoichiometry N,[2],~2
same,stoichiometry N,[3],2.5 monomers
same,stoichiometry N,[4],2.8 monomers
B7,binding result,[2],binds
